The numbers were not newly measured in publication PMC5686428, which cites them from elsewhere.

For the data set, the target named is HSV-1 glycoprotein D (soluble gD) (Herpes simplex virus type 1) (UniProt Q69091). The data set can be described thus: not stated (cited). To be noted: SYBR Green assay: 1-200 nM protein, DApt (dissolved in PBS, heated 95 C 3 min, cooled on ice), 30 min, read at 520 nm; assay buffer, pH and temperature not ….
UniProt Q69091, sequence (Q69091 26-331): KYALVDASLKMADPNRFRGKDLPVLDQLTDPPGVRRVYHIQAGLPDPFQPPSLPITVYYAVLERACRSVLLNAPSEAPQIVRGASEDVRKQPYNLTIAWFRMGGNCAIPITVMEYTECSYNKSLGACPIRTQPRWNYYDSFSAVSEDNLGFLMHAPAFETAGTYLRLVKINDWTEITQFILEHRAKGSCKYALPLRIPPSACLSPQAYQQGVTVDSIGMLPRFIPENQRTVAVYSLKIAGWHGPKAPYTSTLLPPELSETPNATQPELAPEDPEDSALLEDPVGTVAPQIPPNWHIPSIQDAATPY

As to “GGGCACGAGAGAGGUCGUCCCCAGGGGAGAACUCGUGCUCCUGG [mini-1 RNA aptamer]”, the Kd (commonly the concentration at which binding is half-saturated) was 4 nM.
